# T1: cynomolgus monkey E-selectin, cell-surface expressed (cynomolgus monkey, UniProt P16581 22-610 (human entry))
# T1 construct: also called CHO-cynomolgus monkey E-selectin cells; cynomolgus monkey CHO-E
# T1 chain: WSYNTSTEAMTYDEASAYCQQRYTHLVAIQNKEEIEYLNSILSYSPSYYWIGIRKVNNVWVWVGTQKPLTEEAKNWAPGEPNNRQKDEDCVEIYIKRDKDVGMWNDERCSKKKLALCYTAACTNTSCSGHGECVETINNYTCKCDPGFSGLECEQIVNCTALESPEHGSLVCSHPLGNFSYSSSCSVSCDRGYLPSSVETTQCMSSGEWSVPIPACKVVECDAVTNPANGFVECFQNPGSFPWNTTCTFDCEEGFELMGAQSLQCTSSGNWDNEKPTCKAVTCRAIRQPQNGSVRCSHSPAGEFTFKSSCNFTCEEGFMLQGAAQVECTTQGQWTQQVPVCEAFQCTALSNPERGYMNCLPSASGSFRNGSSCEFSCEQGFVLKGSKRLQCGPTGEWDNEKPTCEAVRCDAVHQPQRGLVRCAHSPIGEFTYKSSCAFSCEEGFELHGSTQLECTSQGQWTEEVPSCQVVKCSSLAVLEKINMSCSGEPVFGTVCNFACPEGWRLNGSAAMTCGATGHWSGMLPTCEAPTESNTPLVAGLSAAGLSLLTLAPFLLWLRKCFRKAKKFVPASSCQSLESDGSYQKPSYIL
# T2: human E-selectin, cell-surface expressed (human, UniProt P16581 22-610)
# T2 sequence: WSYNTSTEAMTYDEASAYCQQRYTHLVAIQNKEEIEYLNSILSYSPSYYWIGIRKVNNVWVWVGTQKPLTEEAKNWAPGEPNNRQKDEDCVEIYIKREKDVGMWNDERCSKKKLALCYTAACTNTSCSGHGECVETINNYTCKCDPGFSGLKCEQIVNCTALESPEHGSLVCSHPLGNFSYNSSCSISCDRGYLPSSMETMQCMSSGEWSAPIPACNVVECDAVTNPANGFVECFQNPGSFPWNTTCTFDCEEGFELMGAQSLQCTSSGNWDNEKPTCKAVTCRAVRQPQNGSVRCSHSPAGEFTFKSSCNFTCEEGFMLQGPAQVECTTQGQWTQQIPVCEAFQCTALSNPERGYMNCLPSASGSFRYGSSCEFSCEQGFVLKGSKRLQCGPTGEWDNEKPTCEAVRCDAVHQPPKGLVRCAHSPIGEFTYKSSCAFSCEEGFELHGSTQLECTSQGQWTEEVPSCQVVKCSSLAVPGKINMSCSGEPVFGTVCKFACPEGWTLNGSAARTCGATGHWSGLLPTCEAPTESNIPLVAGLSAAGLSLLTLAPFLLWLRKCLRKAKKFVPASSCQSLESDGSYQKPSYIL
# T3: recombinant histidine-tagged human E-selectin (Sino Biologicals; 13025-H08H) (human, UniProt P16581 22-556)
# T3 sequence (looked up): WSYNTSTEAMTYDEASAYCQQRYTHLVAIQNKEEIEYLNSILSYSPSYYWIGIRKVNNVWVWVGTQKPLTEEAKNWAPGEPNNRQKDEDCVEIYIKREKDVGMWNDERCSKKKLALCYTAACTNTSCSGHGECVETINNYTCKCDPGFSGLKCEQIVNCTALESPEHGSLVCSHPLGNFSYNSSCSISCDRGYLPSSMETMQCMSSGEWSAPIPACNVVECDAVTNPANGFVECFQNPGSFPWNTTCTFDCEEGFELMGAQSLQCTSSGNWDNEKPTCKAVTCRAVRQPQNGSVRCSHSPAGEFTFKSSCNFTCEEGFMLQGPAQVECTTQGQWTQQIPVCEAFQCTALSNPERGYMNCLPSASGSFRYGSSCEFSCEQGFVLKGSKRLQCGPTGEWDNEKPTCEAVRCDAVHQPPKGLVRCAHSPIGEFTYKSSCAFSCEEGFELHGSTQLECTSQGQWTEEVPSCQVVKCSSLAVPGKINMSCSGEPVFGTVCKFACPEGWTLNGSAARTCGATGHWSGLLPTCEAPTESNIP
# B1: optimized anti-E-selectin antibody 1444 (antibody, human IgG1, kappa, V domains shown)
# VH: EVQLVESGGGLVQPGGSLRLSCAASGYAIRSAYMHWVRQAPGKGLEWVARIDPANGNTIYVDSVTGRFTISADNAKNSAYLQMNSLRAEDTAVYYCAMDLYSTSEYWGQGTLVTVSS
# VL: DIQMTQSPSSLSASVGDRVTITCKTSQNIERYLNWYQQKPGKAPKLLIYAASSLQSGVPSRFSGSGSGTDFTLTISSLQPEDFATYFCLQDNAWPLTFGQGTKVEIKR
# notes: effector-null human IgG1, kappa
# What was measured:
# [1] = target: T1, cynomolgus monkey E-selectin, …; assay: competition ELISA on CHO cells vs sialyl Lewis ligand, further assays
# Method: CHO cells expressing E-selectin were seeded at 12,500 cells per well into a 96 well tissue culture plate and incubated at 37° C., 5% CO₂ for 48 hours to form a confluent monolayer. Plates were subsequently washed twice with 200 μL of calcium magnesium free PBS. Anti-E-selectin antibodies or an IgG1 isotype control (IgG control) were added to the assay in the presence of a small synthetic conjugate of biotinylated, sialyl Lewis A polyacrylamide (Carbosynth LLC, OS45446) or sialyl Lewis X polyacrylamide (Glycotech, 01-045) with streptavidin/horseradish peroxidase (100 μL total) and incubated at 37° C., 5% CO₂ for 2 hours. Plates were then washed twice with 200 μL of calcium and magnesium free PBS. Following the incubation, the cells were washed twice with 200 μL of wash buffer containing 2 mM of calcium chloride (50 mM TRIS [trisaminomethane], 150 mM sodium chloride; 0.05% polysorbate 20, pH 7.4; 2 mM calcium chloride). Signal was developed by adding 100 μL of 1-Step Ultra TMB substrate (Thermo Scientific, 34028) and incubating for 30 minutes at room temperature. Reactions were stopped using 2 M of sulfuric acid and absorbance was read at 450 nm (Spectramax M5e). Data were analyzed and graphed using GraphPad Prism software (Version 8.0.2).
# [2] = target: T1, cynomolgus monkey E-selectin, …; assay: cell-based or functional assay
# [3] = target: T2, human E-selectin, cell-surface expressed; assay: cell-based or functional assay
# [4] = target: T3, recombinant histidine-tagged human …; assay: cell-based or functional assay
binder,measurement,setting,value
B1,IC50,[1],1.49 nM
same,"HL-60 adhesion under physiological flow to cells expressing cynomolgus monkey E-selectin, IC50",[2],4.34 nM
same,"HL-60 adhesion under physiological flow to human CHO-E-selectin cells, IC50",[3],4.41 nM
same,"HL-60 cellular adhesion under physiological flow to purified soluble human E-selectin protein, IC50",[4],15.3 nM
same,"adhesion of SCD patient blood cells under physiological flow to recombinant E-selectin, IC50 (one donor)",[4],6.17 nM
same,"adhesion of SCD patient blood cells under physiological flow to recombinant E-selectin, IC50 (other donor)",[4],18.7 nM

# Source: patent US20240076386A1 (Pfizer, published 2024)
